Data on 8 molecules can be found in publication PMC7110144, “Structural basis for centromere maintenance by Drosophila CENP‐A chaperone CAL1” (The EMBO Journal, 2020).

The chains are these.
T1: His-CAL1(1-160) (Drosophila melanogaster, UniProt Q9VEN2 1-160)
T1 construct: CAL1, Drosophila melanogaster, residues 1-160; In crystal form I only CAL1 residues 17-47 were seen; the authors conclude that CAL1 was proteolytically cleaved during crystallisation; also called His-CAL1(1-160 WT); source: E. coli BL21 (DE3) Gold, purified (HisTrap native or Ni-NTA denaturing; SEC); not shown: His, N-terminal, kept
T1 sequence (looked up): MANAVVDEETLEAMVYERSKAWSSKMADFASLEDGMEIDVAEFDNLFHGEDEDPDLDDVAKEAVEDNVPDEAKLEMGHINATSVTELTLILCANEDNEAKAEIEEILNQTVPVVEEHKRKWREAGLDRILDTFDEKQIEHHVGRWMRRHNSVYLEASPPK

T2: CENP-A-GFP-LacI (in U2OS cells) (Drosophila melanogaster, UniProt Q9V6Q2 1-225)
T2 construct: CENP-A (CID), Drosophila melanogaster; source: U2OS cells with a LacO array, transfected (pN2-CMV vector), in cells; not shown: GFP, C-terminal, kept; LacI, C-terminal, kept
T2 sequence (looked up): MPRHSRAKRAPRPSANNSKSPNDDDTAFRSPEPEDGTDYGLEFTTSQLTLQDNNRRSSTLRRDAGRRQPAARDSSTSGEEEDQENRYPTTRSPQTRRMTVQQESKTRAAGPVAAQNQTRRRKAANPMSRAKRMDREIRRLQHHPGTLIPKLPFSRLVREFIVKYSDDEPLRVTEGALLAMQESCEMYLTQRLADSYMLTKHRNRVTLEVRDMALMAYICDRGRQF

B1: CAL1(841-979) (domain or fragment, Drosophila melanogaster, UniProt Q9VEN2 841-979, looked up)
chain: GGDPDCTVVTSTTGCEPPASERQEIPATIKITKRGILLHSPSAPEGASFTLTEQGLGKIIGERWARKYLKYHIGSRSFDSRHSVYYQPTPQLAAALSAPQDAQNIGNISGSSASDDDIFEQINRYGTVYSILENNSGDK
notes: only residues 890-913 are seen in the structure; source: E. coli BL21 (DE3) Gold, purified; not shown: His6, N-terminal, cleaved; SUMO, N-terminal, cleaved
B2: CENP-C(1264-1411) (domain or fragment, Drosophila melanogaster, UniProt Q9VHP9 1264-1411, looked up)
chain: GPVVFSTPLRDEQEEASTKLMQWLRGVGDAPPSASMSDENASVSSANELIFCQVDGIDYAFYNTKEKAMLGYMRFKPYQKRSMKQAKVHPLKLLVQFGEFNVETLAVGEEKEVHSVLRVGDMIEIDRGTRYSIQNAIDKVSVLMCIRS
notes: also called CENP-C cupin domain; source: E. coli Rosetta (DE3), purified; tag removed with 3C, SEC; not shown: His, N-terminal, cleaved
B3: His-CENP-C(1264-1411) (domain or fragment)
chain: B2 chain
notes: vector pEC-K-3C-His; also called CENP-C cupin domain; source: E. coli Rosetta (DE3), purified (HisTrap, SEC); not shown: His, N-terminal, kept
B4: CENP-A(101-225) (domain or fragment, Drosophila melanogaster, UniProt Q9V6Q2 101-225, looked up)
chain: QQESKTRAAGPVAAQNQTRRRKAANPMSRAKRMDREIRRLQHHPGTLIPKLPFSRLVREFIVKYSDDEPLRVTEGALLAMQESCEMYLTQRLADSYMLTKHRNRVTLEVRDMALMAYICDRGRQF
notes: also called CID; histone fold domain of CENP-A
B5: CENP-A(144-225) (domain or fragment, Drosophila melanogaster, UniProt Q9V6Q2 144-225, looked up)
chain: PGTLIPKLPFSRLVREFIVKYSDDEPLRVTEGALLAMQESCEMYLTQRLADSYMLTKHRNRVTLEVRDMALMAYICDRGRQF
B6: CAL1(F43R)-V5 (in U2OS cells) (natural protein, Drosophila melanogaster, UniProt Q9VEN2 1-979, looked up)
chain: MANAVVDEETLEAMVYERSKAWSSKMADFASLEDGMEIDVAERDNLFHGEDEDPDLDDVAKEAVEDNVPDEAKLEMGHINATSVTELTLILCANEDNEAKAEIEEILNQTVPVVEEHKRKWREAGLDRILDTFDEKQIEHHVGRWMRRHNSVYLEASPPKYLPPHHNSISDESDESMHSIDTARYIQQSRRRNAHMTNKNMTTIKMYRKHSHKRDELRAKYAYGDEQEHRHHMQAVLLRRRERERQLAYLASTPMQCVYSSGHHMRRKNLRKRRINSWMFDSASSSEEDTSFGGCDCHSCRRHYALSRSVYQSCPYGRGQREYHHRQMASRTMHTMRRQHTFDMEMDLRPRLPENECSCCNSDRLCSNVIHIANSSTEEWVVENRSNHLTQETQEKTRKQKHQPMDARKVSHQPVCSKGHEQKPLSSKATSVSKLVLSKEKYMQMFDSESSDEDNALAKKGLLCCSDKKKGMTFPTPNAAGKITHPTSSAKKAIRKEARPNGLAQIQEEGPTATNSPIESTYLPVAHMKSVSIDGSSGTSATFESPAKKAPKRGIRETSPLNGNELQQLISTIPIADEKASSLMEKVDNCIGRESFDDRNKDFMHMENSSTKTAVEKSTKQKRVSGKKSEIPKSIITNNEILEKNSTETLSEKQVAAKAKKQSVRKTGATGKPSTSRLKKSEKTKTTSSVTSTSKLEQVREEESDVSSEVLAKPKPQCSTTASILKQGGDGASNSEDDLQIALAMSKATYKEEQQKRKKTKREPSNKQPQSPAEKSMTVFNNQSVACNSTALANDTACYRVLPKRRGVKRAAAVSTTEEKTATNSSSSPTSSLEEMGSPTGGDPDCTVVTSTTGCEPPASERQEIPATIKITKRGILLHSPSAPEGASFTLTEQGLGKIIGERWARKYLKYHIGSRSFDSRHSVYYQPTPQLAAALSAPQDAQNIGNISGSSASDDDIFEQINRYGTVYSILENNSGDK
notes: CAL1, Drosophila melanogaster; non-codon-optimised; source: U2OS cells with a LacO array, transfected, in cells; not shown: V5, C-terminal, kept
B7: His-CAL1(1-160) F43R (domain or fragment)
chain: T1 sequence (looked up) with F43R
notes: CAL1, Drosophila melanogaster, residues 1-160, codon optimised; source: E. coli, recombinant, purified; not shown: His, N-terminal, kept
B8: His-CAL1(1-160-LL-841-979) (domain or fragment, Drosophila melanogaster)
chain: MANAVVDEETLEAMVYERSKAWSSKMADFASLEDGMEIDVAEFDNLFHGEDEDPDLDDVAKEAVEDNVPDEAKLEMGHINATSVTELTLILCANEDNEAKAEIEEILNQTVPVVEEHKRKWREAGLDRILDTFDEKQIEHHVGRWMRRHNSVYLEASPPKGSSGGSSGGGDPDCTVVTSTTGCEPPASERQEIPATIKITKRGILLHSPSAPEGASFTLTEQGLGKIIGERWARKYLKYHIGSRSFDSRHSVYYQPTPQLAAALSAPQDAQNIGNISGSSASDDDIFEQINRYGTVYSILENNSGDK
notes: CAL1, Drosophila melanogaster, residues 1-160; flexible linker (LL) in place of residues 161-840; not shown: His, N-terminal, kept

Changes are numbered by the printed parent chain. Names may count otherwise.

For the data set “CENP-C(1264-1411)”, the target named is B2. In words: AUC; sedimentation velocity (49 k rpm) and sedimentation equilibrium (26 k rpm), 4°C; untagged proteins and SEC purified untagged complex; a range of concentrations, up to 10 mg/ml. The settings on record: both partners purified.
Data set [1] concerns the molecule itself. Description: SEC-MALS; Superdex 75 increase 10/300 GL, 50 mM HEPES pH 8.0, 100 mM NaCl, 1 mM TCEP, 4°C. On the technique in general: Size exclusion chromatography separates by hydrodynamic size, large species first.
Data set [2] concerns the target T3, His-CAL1(1-160-LL-841-979)/CENP-A(101-225)/H4 (Drosophila melanogaster, UniProt Q9VEN2 1-160; Q9VEN2 841-979; Q9V6Q2 101-225; P84040 1-103).
T3 construct: CAL1, Drosophila melanogaster, residues 1-160; flexible linker (LL) in place of residues 161-840; histone H4, Drosophila melanogaster (dm H4); plasmid pET22b H4; not shown: His, N-terminal, kept; copies: + +
Description: SEC; refolded His-CAL1(1-160-LL-841-979)/CENP-A(101-225)/H4 alone or mixed with 1.2 molar excess of His-CENP-C(1264-1411); Superdex 200 increase 10/300, 20 mM Tris-HCl pH 8.0, 100 mM NaCl, 2 mM DTT. The settings on record: both partners purified.

The target in data set [3] is T4, H4 (Drosophila melanogaster, UniProt P84040 1-103).
T4 construct: histone H4, Drosophila melanogaster (dm H4); plasmid pET22b H4, gift of Karolin Luger; also called histone H4; dm H4
In words: crystal structure; crystal form I; complex at 27 mg/ml in 20 mM Tris-HCl pH 8.0, 1 M NaCl, 5 mM DTT; 0.01 M cobalt(II) chloride, 0.1 M MES pH 6.5, 1.8 M ammonium sulphate, 18°C; crystals after about a year. The settings on record: both partners purified.

Data set [4] concerns the target T1, His-CAL1(1-160). In words: cross-linking; gel-filtered complex dialysed into PBS; EDC/sulpho-NHS 1.5 h or BS3 2 h at RT; gel bands digested with trypsin, LC-MS/MS. The settings on record: both partners purified.
In data set [5] the target is T1, His-CAL1(1-160). Description: crystal structure; crystal form II; complex in 20 mM Tris-HCl pH 8.0, 1 M NaCl, 2 mM DTT; lithium sulphate, 0.1 M Tris pH 8.5, PEG 4000; anisotropic diffraction. The conditions noted are these: both partners purified.
Data set [6] has as its target T4, H4. Described as above. The conditions noted are these: both partners purified.
The target of data set [7] is T2, CENP-A-GFP-LacI (in U2OS cells). In words: LacO/LacI tethering assay (recruitment seen by immunofluorescence); human U2OS cells with a LacO array; GFP-LacI fusion tethered, recruitment of co-transfected CAL1-V5 measured at the LacO spot. The settings on record: partners not purified.
In data set [8] the target is T5, CENP-A(101-225)-H4 (Drosophila melanogaster, UniProt Q9V6Q2 101-225; P84040 1-103).
T5 construct: histone H4, Drosophila melanogaster (dm H4); plasmid pET22b H4, gift of Karolin Luger; also called CENP-A/H4; CENP-A/H4 complex
Description: pull-down; His-CAL1(1-160) WT or mutant mixed with 1.3 times molar excess of CENP-A(101-225)-H4 and captured on Ni-NTA resin; 20 mM Tris-HCl pH 8.0, 2 M NaCl, 10% glycerol, 0.5% NP40, 35 mM imidazole, 2 mM βME, 30 min at 4°C; Coomassie-stained SDS-PAGE. The settings on record: both partners purified.

In the data set “His-CENP-C(1264-1411)” the target is B3. In words: SEC; refolded His-CAL1(1-160-LL-841-979)/CENP-A(101-225)/H4 alone or mixed with 1.2 molar excess of His-CENP-C(1264-1411); Superdex 200 increase 10/300, 20 mM Tris-HCl pH 8.0, 100 mM NaCl, 2 mM DTT. The conditions noted are these: both partners purified.
For data set [9], the target named is T5, CENP-A(101-225)-H4. The data set is described as above. The settings on record: both partners purified.

The stoichiometry N is a count of units in the complex or per binding partner. Consider B1, for which, in the data set with CENP-C(1264-1411), the “stoichiometry N” value is 1 CAL1 per CENP-C dimer (2:1 CENP-C:CAL1).

For B2, in [1], the “stoichiometry N” value is 2.

For the molecule B3, the binding result in data set [2] is “binds”.

Regarding B4, the binding result in the data set with H4 [3] and with His-CAL1(1-160) [4] was “binds” in each case.

For B5, the binding result with His-CAL1(1-160) [5] and with H4 [6] was “binds” in each case.

Regarding B6, the “fold change of recruitment against CAL1 WT” value in data set [7] was found to be 3 fold less than CAL1 WT.

For the molecule B7, the binding result in the data set with CENP-A(101-225)-H4 [8] is listed as “binds”.

Regarding B8, the binding result in the data set with His-CENP-C(1264-1411) and with CENP-A(101-225)-H4 [9] was “binds” each time.
